assay: soluble on expression in E. coli; label from the status in PepcDB or PDB records

Sequence | soluble on expression in E. coli
MNEPSACSGPPVKSKSSKNEPFYTLKALLPPYSEIQGNHDLLMSYELGPVEGGFSGSRRVKEKISSFLPHIIGEFHLDATKEASSLRALIEKPPIHKEISNLTSSSMQGFKLSAGPVDERYRHLFERRKEEPNLAYSEKLNLIRVRQQYDAYGFDDDETEKGFPKKHKKKKKDKKRKKEKEELGDAEKRKRAADEPMEF | not soluble
MSLSKENIRKTSKIETKSKEFSRQNMIDLFDLYFYEDCPYQDESAELLRLVGRGKMRIVSRENGTSACAGDLAGYYEKKGLKVLNYFRDGENFKPGDAIFEAEGDIKLIFRFWRVSQTFLTMMCAIATKTASMVSEARRTNPDIIIATSRKTHPGARIFELKAVRAGGGDIHRNSLSDSIQISQNHLEVAGELGKLRAMKKIEIEPRSREEAFKYAEMSDIMLLDHLSPEELRELGPELKELNPELELAVGGIEAKRIPEYAPFVDIIVISAPYYANPLDFTTKIEREGHHHHHH | soluble
MSEITASRPEVVNGHTDVICSTSIRHILAVRKSTLLQIDTLIRQLAEVSAMTESIRGKTALDWAMKQDFRCGCWLMEKPETAMKAITRNLDRELWRDLMQRSGMLSLMDAQTRDTWYRSLEYDNFPEISEANILSTFEQLHQNKDEVFERGVINVFKGLSWDYKTNSPCKFGSKIIVNNLVRWDRWGFHLITGQQTDRLVDLERMLHLFSGKPIPDNRENITIRLDGHIQSVQGKERYEDEMFIIKYFKKGSAHITFKRLELIDRINDIIARYFPSVLSA | not soluble
MSLGISEAFDLRPDYIISVIKDTKAKLVGFQFPEGLKRKGPELAKIVEEATGAEVLISGDPCFGACDLDRTLLDHVELLFHFGHAELEDVRLSDKVYFIETRSSVDVRPVVEKALPGLKGEKIGLITTVQHVHKLHDVCRVLEAGGKTCVIGRGDSRLAYAGQVLGCNFSAARDEVCDEYLYIGSGDFHPLGVALSTKKRVLAADPFSGEVREVDPSRILRQRSAVIAKSLDAQVFGIIVSSKNGQMRMELASSLKEIAKKHGKEAHLILIDLVTPDQLLQFKVDAFVNTACPRLAVDEVGRFPSPMLTPQEFEIVLGEREWEKLVLDEITEEPVLEHHHHHH | soluble
MGHHHHHHSHMWQAISRLLSEQLGEGEIELRNELPGGEVHAAWHLRYAGHDFFVKCDERELLPGFTAEADQLELLSRSKTVTVPKVWAVGADRDYSFLVMDYLPPRPLDAHSAFILGQQIARLHQWSDQPQFGLDFDNALSTTPQPNTWQRRWSTFFAEQRIGWQLELAAEKGIAFGNIDAIVEHIQQRLASHQPQPSLLHGDLWSGNCALGPDGPYIFDPACYWGDRECDLAMLPLHTEQPPQIYDGYQSVSPLPADFLERQPVYQLYTLLNRARLFGGQHLVIAQQSLDRLLAA | soluble
MPEISRDEVAHLAKLSRLALTDEELDRFAEQIDGIIGNVSAVQQVAAEGVEPMSHPHSIKTTMREDVVEQILTPEQALDQAPAVDQQRFVVPQILGEQD | not soluble
MSLSNGAPGTRIASAVGAFDVSRRASLTRGAGEAVERFALVPVPADSEHLLARNGSADPQIDFVSAGLGHVSALACDVPWYRAVDLLTGKPTQVPAPVVDYTPGRGESNSWDAFFDPSPNGAASGPSEAFAQTSAIAEVMERDAFLAAWRHKIPLQKFDAKSMPVAVRQGAEARGLSLLLVAARAAGVEPTLAFIPNNGSPLLTAVCIITEEKGPVCYGAVGLKAASDPVSALKGALQEGLQIRELFLTRAHSADPASASPVSAPSVATVTDDDSRAHFWTTAPAIAELRRWVGSFQPSNFPSKQPEPDLDALVKHLAGRNVRSHWVNLTHRLPAAIRELGWVAGKAVCPGAVPLTMDETKELFVMPGSEGHHHHHH | soluble
MIAPQPPMHLSGRCVCPSDPQFVEEKGIQAEDLVIGALENAFQECDDVIGRELEASGQVGGCTALVAVFLQGKLYVANAGDSRAILVRRHEIRQLSSEFTPETERQRIQQLAFTYPELLAGEFTRLEFPRRLKGDDLGQKVLFRDHHMRGWSYKRVEKSDLKYPLIHGQGRQARLLGTLAVSRGLGDHQLRVLDTDIQLKPFLLSIPQVTVLDVHQLAVQEEDVVVMATDGLWDVLSNEQVALLVRSFLTGNQKDDPHRFSELAKMLIHNTQGKDNGATGEGQVSYDDVSVFVIPLHSQAQEGSGH | soluble
MSATAKHDSNASPNSDSEDGHHHNNKKECAIEYLKARLNSASAVACGYLQAFVSKTQDFAKVCFLELQNPVVLVNLLLHSSVVCYLCNGYANHNARFLKGKPNSTVLATTAGALGLLTLDGIISKKYYSRYDKK | soluble
MGQMADRLAALVVTAFSPDGQIEGSYGAAAGANIRFNGNSYRHYTERGLGHQLSRMAVLVWIAHQRGHDATVAEVTGQPVSRRQETWDARRRRFREEQAETESEGMSTGGLVYFRNTGMRDWHIVIRDGTLSKLDEPEFVKEFLSGYAALSLDYRHKMTKLRTKHYGPDIWMKK | not soluble
AHHHHHHGSALSDKLDLVNPSEIRKLFDLAAGMKDVISLGIGEPDFDTPAHIKEYAKEGLDKGLTHYGPNVGLPELREAIAEKLKKQNGIEADPNSEIMVLVGANQAFLMSLATFLKDGEEVLIPSPMFVSYAPAVILAGGKPVEVPTYEDNEFRINVDDLKKHVSEKTRALIINSPNNPTGAVLTKKDLEEIADFANEHDLMIISDEVYEHFIYDGAKHYSIAALDGMFGRTITVNGFSKTFAMTGWRLGFVVAPSWVIEKMVKFQMYNATCPVTFIQYAAAKALRDERSWKAVEEMRKEYERRRNLVWKRLNEMGLPTVEPKGAFYIFPRIKDTGLSSKEFSELMLMEAKVAVVPGSAFGRAGEGYIRISYATAYEKLEEAMNRMEKVLKEKKLI | soluble
MSLVLNFVGTGTLTRFFLECLKDRYEIGYILSRSIDRARNLAEVYGGKAATLEKHPELNGVVFVIVPDRYIKTVANHLNLGDAVLVHCSGFLSSEIFKKSGRASIHPNFSFSSLEKALEMKDQIVFGLEGDERGLPIVKKIAEEISGKYFVIPSEKKKAYHLAAVIASNFPVALAYLSKRIYTLLGLDEPELLIHTLMKGVADNIKKMRVECSLTGPVKRGDWQVVEEERREYEKIFGNTVLYDEIVKLLREVAESERREAQEDEREGGSHHHHHH | soluble
MSTHEATLQQPLLRAIDLKKHYPVKKGIFSPERLVKALDGVSFNLERGKTLAVVGESGCGKSTLGRLLTMIETPTGGELYYQGQDLLKHDPHAQKLRRQKIQIVFQNPYGSLNPRKKVGQILEEPLLINTSLSKAQRREKALAMMAKVGLKTEHYDRYPHMFSGGQRQRIAIARGLMLDPDVVIADEPVSALDVSVRAQVLNLMMDLQQDMGLSYVFISHDLSVVEHIADEVMVMYLGRCVEKGTKEQIFNNPRHPYTQALLSATPRLNPDDRRERIKLTGELPSPLNPPPGCAFNARCSRRFGPCTQLQPQLKEYDGQLVACFAVDQDENPQKPLS | not soluble
MTDIKMIALGGVREYGKNFYLVEINDSMFILDAGLKYPENEQLGVDLVIPNLDYVIENKGKVQGIFLSHGHADAIGALPYLLAEVSAPVFGSELTIELAKLFVKSNNSTKKFNNFHVVDSDTEIEFKDGLVSFFRTTHSIPESMGIVIGTDKGNIIYTGDFKFDQAAREGYQTDLLRLAEIGKEGVLALLSDSVNATSNDQIASESEVGEEMDSVISDADGRVIVAAVASNLVRIQQVFDSATAHGRRVVLTGTDAENIVRTALRLEKLMITDERLLIKPKDMSKFEDHELIILEAGRMGEPINSLQKMAAGRHRYVQIKEGDLVYIVTTPSTAKEAMVARVENLIYKAGGSVKLITQNLRVSGHANGRDLQLLMNLLKPQYLFPVQGEYRDLAAHAKLAEEVGIFPENIHILKRGDIMVLNDEGFLHEGGVPASDVMIDGNAIGDVGNIVLRDRKVLSEDGIFIVAITVSKKEKRIISKAKVNTRGFVYVKKSHDILRESAELVNTTVGNYLKKDTFDWGELKGNVRDDLSKFLFEQTKRRPAILPVVMEVR | not soluble
GKENDAGDIVEKFDPTEAQSVEVQDERPETTIGRGKPTDEVVLLSEAHRPEEKMAAYEDEHGTYIMNSKDLRAVQHVERLTKMGVHSLKIEGRTKSFYYCARTAQVYRKAIDDAVAGKPFDESLMGTLESLAHRGYTEGFLRRHTHDTYQNYDYGYSVSDAQQFVGEFTGKRRGDMAEVEVKNKFVVGDSLELMTPKGNVVFTLEAMENRKSESIEDAKGNGHFVFIPVPEDMDLEYGLLMRNLNAGQDTRNPTGK | not soluble
MEATQQAERKSMNKSQAFANASHDIRGALAGMKGLIDICRDGVKPGSDVDTTLNQVNVCAKDLVALLNSVLDMSKIESGKMQLVEEDFNLSKLLEDVIDFYHPVAMKKGVDVVLDPHDGSVFKFSNVRGDSGRLKQILNNLVSNAVKFTVDGHIAVRAWAQRPGSNSSVVLASYPKGVSKFVKSMFCKNKEESSTYETEISNSIRNNANTMEFVFEVDDTGKGIPMEMRKSVFENYVQVRETAQGHQGTGLGLGIVQSLVRLMGGEIRITDKAMGEKGTCFQFNVLLTTLESPPVSDMK | not soluble
MGSDKIHHHHHHMSLRRIMVTAVRNLHPVTLLPSPRINILYGANGSGKTSVLEAVHLLGLARSFRSTRLNPVIQYEQAACTVFGEVQLTEGGTSNLGVSRERQGEFTIRIDGQNARSAAQLAELLPLQLINPDSFRLLEGAPKIRRQFLDWGVFHVEPRFLPAWQRLQKALRQRNSWLRHGTLDPASQAAWDRELCLASAEIDEYRRNYIKALKPVFERTLSELVELDGLTLSYYRGWDKDRELQEVLASSLLRDQQMGHTQAGPQRADLRLRLAGNNAADILSRGQQKLVVCALRIAQGHLVSQARRGHCIYLVDDLPSELDDQHRRALCRLLEELRCQVFITCVDHELLREGWQTETPVALFHVEQGRITQTHDHRE | not soluble
MLRKQARQRREYLYNKALTERLKSKQKIQETVVKSINENKAIGSKNVKKSLTAYKSLKYADEGVDDRTVNDEYHYAGCEDPKIMLTTSHNPSSRLKMFMKELRLIIPNAQQMNRGNYQLTTLMHACRANNVTDFLIVHEHRGIPDSLVVCHLPYGPTAFFNISDVVMRHDIPDIGHMSEQKPHLIFNNFKTPIGLRTVKILKHLFPVPKENSQRVMSFLNHNDSIIFRHHQYKYVNKELELTEVGPRFSLKLYQIKLGTLENIKAADTEWINRPYMNTSQKRLIFSNDPGIINKDTEALEHHHHHH | soluble
RGETIKGQFAVAEVILNRVQSERFPNTPCGVIRQGTGRKYQCQFTYTCDGRKEVIAEKQAYERVAKVARLAMDGAAESLTDGATYYHTTAVRPSWARRFTQTTKIGVHLFYRQGQRTASN | not soluble
MKENIEKLFQAIAQKNPIHSKYLKKIEFSQEDEEEFDKLISYYIQDGISIKEQCDCYLLILNDTLEETKFFIENGAYRYSSFDEVKDKVYFNESYMKQYMIGLALSSFVWIAHIKVRKYFSQYLQNFTPKTTYFEIGPGHGEYFARAVKSGKFSAFYGLDISPTSCELTQKMVKQQVGGLITKCDFLCQDFFTYDFDKKADLIVIGEVLEHVEKPLEFLKRSKELLSDGGEIFATIPINAPAIDHIYLFSHPDEVKDLIEKSGLKFKAYECFMANDYSLEKALKFKNAITMAVVLNALEHHHHHH | soluble
MLIRQVTMEDLEDIIRIENDNFSAEEAATSQALKERIEVIADTFLVAEQDGQIAGYVEGPVINSRYLTDDLFHKVKPNQEKSGYIAVTSLSVDKAFQKQGVGTTLLAALKDLTVAQNRLGIHLTCHDYLISYYEMNGFSNEGLSESTHGGTVWYNMIWENPKI | not soluble
